{
  "source": "paper PMC4866589",
  "proteins": {"B1": {"name": "hTSSK2 (testis-specific serine/threonine kinase 2) (Homo sapiens) (protein)", "chain": "MDDATVLRKKGYIVGINLGKGSYAKVKSAYSERLKFNVAVKIIDRKKTPTDFVERFLPREMDILATVNHGSIIKTYEIFETSDGRIYIIMELGVQGDLLEFIKCQGALHEDVARKMFRQLSSAVKYCHDLDIVHRDLKCENLLLDKDFNIKLSDFGFSKRCLRDSNGRIILSKTFCGSAAYAAPEVLQSIPYQPKVYDIWSLGVILYIMVCGSMPYDDSDIRKMLRIQKEHRVDFPRSKNLTCECKDLIYRMLQPDVSQRLHIDEILSHSWLQPPKPKATSSASFKREGEGKYRAECKLDTKTGLRPDHRPDHKLGAKTQHRLLVVPENENRMEDRLAETSRAKDHHISGAEVGKAST"}},
  "substrate": "Nc1ncnc2c1ncn2[C@@H]1O[C@H](COP(=O)(O)OP(=O)(O)OP(=O)(O)O)[C@@H](O)[C@H]1O",
  "experiment": "ATP Km by microfluidic mobility shift kinase assay",
  "type": "biochemical, Homo sapiens",
  "conditions": "Mg2+ ([…] MgCl2 in the assay buffer)",
  "data": [
    {"protein": "B1", "values": [
      {"measurement": "Km", "value": "2.17 ± 0.04", "unit": "µM"}
    ]}
  ]
}
